Experimental findings from patent US20040092714A1 are described below.

This test deals with OSCAR specific ligand expressed on the surface of primary murine osteoblast cells (murine). Description: cell-based or functional assay.

In the case of “soluble murine OSCAR-Ig fusion polypeptide (extracellular domain of murine OSCAR fused to the Fc region of human IgG1) (Fc fusion)”, the dentine resorption pits per slice (pits per slice) was found to be 7 and the inhibition of dentine resorption (fold) was greater than 10 fold.
